Tests used:
GFP-Polη = GFP-Polη (UniProt Q9Y253); assay: co-IP
[1] = target: GFP-mRev1 (not stated (label mRev1)) (UniProt Q920Q2); assay: co-IP

Work on “PCNA-Ub (C-terminal fusion of ubiquitin to PCNA-K164R) (from UniProt P12004 1-261; P0CG48 1-76)” yielded a PCNA-Ub:PCNA precipitation ratio (GFP-Polη) of 3.5 and a PCNA-Ub:PCNA precipitation ratio [1] of 8.5.

— PMC3753651
